Reference: PMC2631628

Key:
hnRNP A1 [1] = molecular target: hnRNP A1 (UniProt P09651); test: footprinting (Pb(II)); settings: Footprinting: RNA refolded in 2 mM MgCl2, 80 mM NaCl, 20 mM Tris-HCl pH 7.2; probing at 37 C for 10 min; EMSA and pull-down buffers not in the material
hnRNP A1 [2] = molecular target: hnRNP A1 (UniProt P09651); test: competition; settings: Footprinting: RNA refolded in 2 mM MgCl2, 80 mM NaCl, 20 mM Tris-HCl pH 7.2; probing at 37 C for 10 min; EMSA and pull-down buffers not in the material

Sequence of hnRNP A1 (P09651 whole entry): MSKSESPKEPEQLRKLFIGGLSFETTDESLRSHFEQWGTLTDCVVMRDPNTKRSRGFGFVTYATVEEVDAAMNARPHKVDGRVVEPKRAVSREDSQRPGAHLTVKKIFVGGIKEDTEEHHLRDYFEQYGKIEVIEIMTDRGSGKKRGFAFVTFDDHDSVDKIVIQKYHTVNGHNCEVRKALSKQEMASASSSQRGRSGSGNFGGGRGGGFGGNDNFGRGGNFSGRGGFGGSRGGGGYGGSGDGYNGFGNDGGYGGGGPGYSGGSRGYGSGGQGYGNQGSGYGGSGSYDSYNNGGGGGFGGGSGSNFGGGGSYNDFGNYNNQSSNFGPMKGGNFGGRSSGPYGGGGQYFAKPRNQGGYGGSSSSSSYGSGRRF

Sequence | binding (hnRNP A1 [1]) | binding (hnRNP A1 [2])
GGUGUUCUAAGGUGCAUCUAGUGCAGAUAGUGAAGUAGAUUAGCAUCUACUGCCCUAAGUGCUCCUUCUGGCA [pri-miR-18a_73nt] | binds | –
GGCGUGCAGGGCCUGCUGAUGUUGAGUGCUUUUUGUUCUAAGGUGCAUCUAGUGCAGAUAGUGAAGUAGAUUAGCAUCUACUGCCCUAAGUGCUCCUUCUGGCAUAAGAAGUUAUGUAUUCAUCCAAUAAUUC [pri-miR-18a] | – | binds
